According to IntAct's records for PubMed 19461891:

B1: Defective in germ line development protein 3 (Caenorhabditis elegans), Q95ZK7-1 (parent)
chain: MGEQSHEKDHDEAHSYNPFVRSAVEYDADTRLQMAENAASARKLFVSSALKDIIVNPENFYHDFQQSAQMAEDANQRRQVSYNTKREAHIHQLKAQGLPLPSNIPMIEINPTRVTLNMEFESQYYSLMTSDNGDHENVASIMAETNTLIQLPDRSVGGTTPDPFAQQVTITGYFGDVDRARMLMRRNCHFTVFMALSKMKMPLHELQAHVRQNPIQNVEMSFVDAPEKNGIVTTYLRITAREKNQHELIEAAKRLNEILFRESPAPENNFTLHFTLSTYYVDQVLGSSSTAQLMPVIERETTTIISYPCYNNRNETRGNIYEIKVVGNIDNVLKARRYIMDLLPISMCFNIKNTDMAEPSRVSDRNIHMIIDESGIILKMTPSVYEPADLLSGEVPLNCASLRSKEFNIKKLYTAYQKVLSKKFDFIAPQPNDYDNSIWHHSLPANFLKNFNMPCRGELSDGSNGRRHRSSSIASSRSKHSYMSKGKQFSESSGGPSRSHTRVSSFSENSSTVPIMQFPTPHFAPPMLTPHHHMLKYVYLQQHQQAQTFLKGAAGLHPGTHIMFPPPIIVDGSFVSALPFADPVVFDGFPYVHGLFPVNEAEQHRNHRESSPSLRSTQEIRKPSRNMGNRPSSSTGSYYPSTTPRQRVYEQVREDDLRSHIGSRRTSVNGDDQNVESMHDQGYERQYPRQHQRLQKDDQQRWKTGSRGDIHSSRTINVHRDVRNSNEYDFHVGNSGPAKRSPSLEQVQLQMTHHLKLKSNDVDLDHEKLYMHESPHNDSDTTVSASGFGNDLMDGDFVQRFLSNANINESGRRPRTVSCFTEKDGQSARYIDSDGAYSVVDHASTHQSRSYDSFRKVGDNGVTKTILEPRARVEKDYGKISLEHKTKYSNEYGDEEKSAENDTSSLGSRQYRIDPMKLIASVRESSEQLPRIHERQFSDVLNEKEKEIADKSIESTVTQDLSLDETSTY
partner: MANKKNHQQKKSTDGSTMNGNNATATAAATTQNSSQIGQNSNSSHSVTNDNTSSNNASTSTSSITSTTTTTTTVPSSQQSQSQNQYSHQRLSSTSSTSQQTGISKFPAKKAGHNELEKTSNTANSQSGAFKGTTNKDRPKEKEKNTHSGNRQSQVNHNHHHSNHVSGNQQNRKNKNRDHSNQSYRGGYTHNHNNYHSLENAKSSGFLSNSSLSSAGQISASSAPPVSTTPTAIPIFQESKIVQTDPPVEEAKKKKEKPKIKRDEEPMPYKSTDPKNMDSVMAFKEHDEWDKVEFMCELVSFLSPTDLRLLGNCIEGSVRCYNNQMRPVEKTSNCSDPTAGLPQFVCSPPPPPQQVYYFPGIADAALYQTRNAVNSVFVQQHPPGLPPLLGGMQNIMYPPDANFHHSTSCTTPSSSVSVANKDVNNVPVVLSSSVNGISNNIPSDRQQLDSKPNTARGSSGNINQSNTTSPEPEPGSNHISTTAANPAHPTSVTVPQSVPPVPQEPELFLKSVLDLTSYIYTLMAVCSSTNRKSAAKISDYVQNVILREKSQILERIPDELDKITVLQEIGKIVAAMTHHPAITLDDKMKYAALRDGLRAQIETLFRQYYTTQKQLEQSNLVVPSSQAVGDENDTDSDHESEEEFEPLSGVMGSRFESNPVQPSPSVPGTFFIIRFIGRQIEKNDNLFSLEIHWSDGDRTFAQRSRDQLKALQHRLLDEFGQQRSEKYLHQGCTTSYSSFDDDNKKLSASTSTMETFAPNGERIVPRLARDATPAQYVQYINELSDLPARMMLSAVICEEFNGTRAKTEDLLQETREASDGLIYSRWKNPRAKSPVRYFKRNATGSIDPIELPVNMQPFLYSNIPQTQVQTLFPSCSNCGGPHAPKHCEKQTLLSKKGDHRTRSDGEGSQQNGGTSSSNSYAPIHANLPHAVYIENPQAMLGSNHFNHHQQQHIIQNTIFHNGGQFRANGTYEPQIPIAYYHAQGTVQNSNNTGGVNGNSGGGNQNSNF

Variants of: B1
Conditions: with gls-1, Q8I4M5-3

Row | Variant | effect of a mutation on the interaction
1 | G327R | disrupting interaction strength
